Values joined by “and” are separate entries in the source; they are usually repeats but may differ in a detail not shown here. Equal values may be shown once.
B1: 3-102 (antibody)
heavy: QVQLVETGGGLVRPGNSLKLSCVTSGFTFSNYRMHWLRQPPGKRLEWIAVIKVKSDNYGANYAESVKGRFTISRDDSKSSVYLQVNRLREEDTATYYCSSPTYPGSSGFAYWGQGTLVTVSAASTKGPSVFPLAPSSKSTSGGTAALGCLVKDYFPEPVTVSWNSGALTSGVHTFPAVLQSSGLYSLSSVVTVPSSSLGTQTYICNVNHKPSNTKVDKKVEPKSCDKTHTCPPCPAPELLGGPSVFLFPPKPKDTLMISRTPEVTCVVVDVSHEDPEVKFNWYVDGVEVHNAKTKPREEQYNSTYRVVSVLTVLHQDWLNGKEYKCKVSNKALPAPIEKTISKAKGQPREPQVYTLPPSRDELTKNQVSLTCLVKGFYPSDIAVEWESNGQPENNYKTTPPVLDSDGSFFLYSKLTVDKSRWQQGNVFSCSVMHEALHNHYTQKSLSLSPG
light: DIQMTQTTSSLSASLGDRVTISCRASQDISNYLNWYQQKPDGTVKLLIYYTSRLHSGVPSRFSGSGSGTDYSLTISNLEQEDIATYFCQQGNKFPPTFGGGTKLEINRTVAAPSVFIFPPSDEQLKSGTASVVCLLNNFYPREAKVQWKVDNALQSGNSQESVTEQDSKDSTYSLSSTLTLSKADYEKHKVYACEVTHQGLSSPVTKSFNRGEC
B2: 3-105 (antibody)
heavy: QVQLVETGGGLVRPGNSLKLSCVTSGFTFSNYRMHWLRQPPGKRLEWIAVIKVKSDNYGANYAESVKGRFTISRDDSKSSVYLQVNRLREEDTATYYCSSPTYPGSSGFAYWGQGTLVTVSAASTKGPSVFPLAPSSKSTSGGTAALGCLVKDYFPEPVTVSWNSGALTSGVHTFPAVLQSSGLYSLSSVVTVPSSSLGTQTYICNVNHKPSNTKVDKKVEPKSCDKTHTCPPCPAPELLGGPDVFLFPPKPKDTLMISRTPEVTCVVVDVSHEDPEVKFNWYVDGVEVHNAKTKPREEQYNSTYRVVSVLTVLHQDWLNGKEYKCKVSNKALPLPEEKTISKAKGQPREPQVYTLPPSRDELTKNQVSLTCLVKGFYPSDIAVEWESNGQPENNYKTTPPVLDSDGSFFLYSKLTVDKSRWQQGNVFSCSVMHEALHNHYTQKSLSLSPG
light: B1 light
B3: 3-90 (antibody)
heavy: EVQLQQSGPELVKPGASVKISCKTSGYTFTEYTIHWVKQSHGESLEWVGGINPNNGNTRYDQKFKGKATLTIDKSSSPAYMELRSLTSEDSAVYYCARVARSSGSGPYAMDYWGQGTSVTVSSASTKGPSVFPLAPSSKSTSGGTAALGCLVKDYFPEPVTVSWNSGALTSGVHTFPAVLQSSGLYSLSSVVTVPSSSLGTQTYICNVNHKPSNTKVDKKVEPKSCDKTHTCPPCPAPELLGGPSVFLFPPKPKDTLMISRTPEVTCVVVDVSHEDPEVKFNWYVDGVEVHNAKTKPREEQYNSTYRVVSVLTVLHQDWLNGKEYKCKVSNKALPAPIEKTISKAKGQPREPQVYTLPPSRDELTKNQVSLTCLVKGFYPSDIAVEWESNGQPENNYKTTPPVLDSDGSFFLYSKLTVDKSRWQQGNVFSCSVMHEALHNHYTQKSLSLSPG
light: DVVMTQTPLSLPVSLGDQASISCRCTQSLLHTNGDTYLHWYLQKPGQSPKLLIYKVSNRFSGVPDRFSGSGSGTDFTLKISRVEAEDLGVYFCSQSTHVPYTFGGGTKLEIKRTVAAPSVFIFPPSDEQLKSGTASVVCLLNNFYPREAKVQWKVDNALQSGNSQESVTEQDSKDSTYSLSSTLTLSKADYEKHKVYACEVTHQGLSSPVTKSFNRGEC
B4: 3-92 (antibody)
heavy: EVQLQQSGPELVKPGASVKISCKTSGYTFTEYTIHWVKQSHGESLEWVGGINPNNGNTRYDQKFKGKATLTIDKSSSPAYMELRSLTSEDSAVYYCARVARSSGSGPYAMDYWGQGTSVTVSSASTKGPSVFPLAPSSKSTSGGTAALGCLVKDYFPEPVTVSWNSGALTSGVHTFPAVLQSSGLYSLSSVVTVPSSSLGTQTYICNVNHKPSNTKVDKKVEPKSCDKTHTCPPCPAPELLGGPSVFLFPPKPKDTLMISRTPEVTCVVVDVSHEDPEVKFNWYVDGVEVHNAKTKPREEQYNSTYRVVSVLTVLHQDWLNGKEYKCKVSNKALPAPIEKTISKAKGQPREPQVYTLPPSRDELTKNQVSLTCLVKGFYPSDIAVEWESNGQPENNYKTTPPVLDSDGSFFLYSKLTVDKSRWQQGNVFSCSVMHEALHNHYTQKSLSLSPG
light: B3 light
B5: 3-91 (antibody)
heavy: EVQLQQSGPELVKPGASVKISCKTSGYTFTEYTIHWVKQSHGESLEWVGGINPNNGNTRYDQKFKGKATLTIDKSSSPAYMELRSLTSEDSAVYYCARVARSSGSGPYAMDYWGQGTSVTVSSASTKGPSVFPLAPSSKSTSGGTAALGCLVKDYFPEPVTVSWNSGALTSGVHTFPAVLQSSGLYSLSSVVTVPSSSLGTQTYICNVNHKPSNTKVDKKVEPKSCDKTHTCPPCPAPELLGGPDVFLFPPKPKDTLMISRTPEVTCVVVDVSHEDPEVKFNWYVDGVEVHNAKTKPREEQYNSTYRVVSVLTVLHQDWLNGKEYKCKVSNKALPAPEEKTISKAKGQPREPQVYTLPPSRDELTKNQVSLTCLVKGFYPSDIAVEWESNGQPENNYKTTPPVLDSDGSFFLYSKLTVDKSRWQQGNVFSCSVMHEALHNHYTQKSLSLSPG
light: B3 light
B6: 3-45 (antibody, V domains shown)
VH: EVQLVETGGGLVQPKGSLKLSCAASGFTFNANAMNWVRQAPGKGLEWVARIRSKSNNYATYYADSVKDRFTISRDDSQSMLYLQMNNLKTEDTAMYYCVRGSDNYIFYAMDYWGQGTSVTVSS
VL: DIVMTQAAPSVPVTPGESVSISCRSSKSLLHSNGNTYLYWFLQRPGQSPQLLIYRMSNLASGVPDRFSGSGSGTAFTLRISRVEAEDVGVYYCMQHLEYPFTFGGGTKLEIK
B7: 3-49 (antibody, V domains shown)
VH: EVQLQQSGPELVKPGASVKISCKTSGYTFTEYTMHWVKQSHGKSLEWIGGINPNNGDTNYNQKFMGKATLTVDKSSSTAYMELRSLTSEDSAVYYCVRRLLRRGAMDYWGQGTSVTVSS
VL: DIVLTQSPASLAVSLGQRATISCRASENVEYYGTSLMQWFQQKPGQPPKLLIYAASNVDSGVPARFSGSGSGTDFSLNIHPVEEDDIAMYFCQQSRKVPWTFGGGTKLDIK
B8: 3-48 (antibody, V domains shown)
VH: QVQLVETGGGLVRPGNSLKLSCVTSGFTFSNYRMHWLRQPPGKRLEWIAVIKVKSDNYGANYAESVKGRFTISRDDSKSSVYLQVNRLREEDTATYYCSSPTYPGSSGFAYWGQGTLVTVSA
VL: DIQMTQTTSSLSASLGDRVTISCRASQDISNYLNWYQQKPDGTVKLLIYYTSRLHSGVPSRFSGSGSGTDYSLTISNLEQEDIATYFCQQGNKFPPTFGGGTKLEIN

Target: T1, human CCR8 (human, UniProt P51685 1-355)
Experiment: cell-based or functional assay

Binder | ADCC % Max lysis, NK cells Donor 3 [%] | ADCC % Max lysis, NK cells Donor 4 [%] | ADCC EC50, NK cells Donor 3 [pM] | ADCC EC50, NK cells Donor 4 [pM]
B1 | 16 | 18 | 291 | 406
B2 | 25 | 30 | 8.22 | 48.9
B3 | 14 | 15 | 793 | 1520
B4 | 29 | 29 | 195 | 282
B5 | 25 | 28 | 218 | 53

Target: T1, human CCR8
Experiment: cell-based or functional assay
Remark: another data set of the same source

Binder | hCCL1 (100 nM) residual response, Protocol #2, mAb 0.08 µg/mL [%] | hCCL1 (100 nM) residual response, Protocol #2, mAb 0.4 µg/mL [%] | hCCL1 (100 nM) residual response, Protocol #2, mAb 10 µg/mL [%] | hCCL1 (100 nM) residual response, Protocol #3, mAb 0.05 µg/mL [%] | hCCL1 (100 nM) residual response, Protocol #3, mAb 0.5 µg/mL [%] | hCCL1 (100 nM) residual response, Protocol #3, mAb 5 µg/mL [%]
B6 | 99 | 85 | 68 | 86 | 75 | 48
B7 | 99 | 102 | 95 | 102 | 97 | 67
B8 | 93 | 89 | 48 | 92 | 68 | 50

Target: pm8 (human, sulfated tyrosines at Y15, Y16 and Y17)
Sequence (peptide, as listed by the source): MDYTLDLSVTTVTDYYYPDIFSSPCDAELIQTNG
Experiment: ELISA on coated peptide [cont.]
Protocol: (§1) The specific binding properties of antibodies were evaluated by ELISA with coated CCR8 related peptides (500 ng/mL) in carbonate/bicarbonate buffer. Different peptides were used as described in Table 1 (see Example 1). Each anti-CCR8 mAb was tested at 1 μg/mL then diluted at 1/10. After an incubation at room temperature during 90 min, unbound mAbs were removed by washings. […] After washings, 3,3′,5,5′-tetramethylbenzidine (TMB) (Interchim, Montlugon, France) was added for 15 min. Then the optical density (OD) was determined by using a multiplate reader (Tecan, Lyon, France) and correlated with mAb reactivity on the panel of coated peptides.

Binder | binding result
B6 | binds
B7 | binds
B8 | binds

Target: pm6 (human, sulfated tyrosines at Y16 and Y17)
Sequence (peptide, as listed by the source): as above
Experiment: ELISA on coated peptide [cont.]
Protocol: as §1

Binder | binding result
B6 | binds
B7 | binds
B8 | binds

Target: pm3 (human, sulfated tyrosine at Y17)
Sequence (peptide, as listed by the source): as above
Experiment: ELISA on coated peptide [cont.]
Protocol: as §1

Binder | binding result
B6 | binds
B7 | binds
B8 | binds

Target: pm5 (human, sulfated tyrosines at Y15 and Y17)
Sequence (peptide, as listed by the source): as above
Experiment: ELISA on coated peptide [cont.]
Protocol: as §1

Binder | binding result
B6 | binds
B7 | binds
B8 | binds

Target: T1, human CCR8
Experiment: flow cytometry, hCCR8 transfected CHOK1 cells
Protocol: Briefly, 1·10⁵ cells per well in a 96 well plate were incubated with a dilution of unconjugated anti-CCR8 mAb at 10 μg/mL then diluted at 1/3.33, 4 dilution points (during 30 min at 4° C.). […] To determine EC50 value, 8 concentrations of anti-CCR8 mAb were tested. Unbound antibodies were washed away with PBS (Invitrogen by Thermofisher Scientific, Illkirch-Graffenstaden, France) supplemented by 2% Fetal Bovine Serum (Invitrogen by Thermofisher Scientific, Illkirch-Graffenstaden, France) and 2 mM EDTA (Invitrogen by Thermofisher Scientific, Illkirch-Graffenstaden, France). Subsequently, cells are centrifuged (5 min at 400 g) and bound antibody is detected with F(ab′)₂-Goat anti-Mouse IgG (H+L) Cross-Adsorbed Secondary Antibody, Alexa Fluor 488 (dilution 1/500) (Invitrogen by Thermofisher Scientific, Illkirch-Graffenstaden, France) or with F(ab′)₂-Goat anti-Human IgG Fc Secondary Antibody, PE (Invitrogen by Thermofisher Scientific, Illkirch-Graffenstaden, France) (dilution 1/1000) at 4° C. for 30 min. Detection reagent is washed away and cells are centrifuged (5 min at 400 g) and resuspended in 30 μL PBS. Bound detection antibody is quantified on a MacsQuant16 (Miltenyi, Gladbach, Germany) (B1 or B2 channel, 5000 events per acquisition).

Binder | % positive cells [%] | MFI fold change to isotype ctrl [fold]
B6 | 67.8 | 6.11
B7 | 73.4 | 6.52
B8 | 83 | 17.6

Target: T1, human CCR8
Experiment: cell-based or functional assay
Remark: another data set of the same source

Binder | IC50 (Gi2 BRET, pH 6.5) | IC50 (Gi2 BRET, pH 7.4)
B6 | 0.031 µg/ml and 0.208 nM | 0.017 µg/ml and 0.115 nM
B7 | 0.036 µg/ml and 0.237 nM | 0.006 µg/ml and 0.039 nM
B8 | 0.014 µg/ml and 0.095 nM | 0.004 µg/ml and 0.026 nM
